Measurements from article PMC9758056.

B1: LRRK2^RCKW (catalytic half of LRRK2: ROC, COR, kinase and WD40 domains), wild type, Q5S007 R1384A; K1385A (protein)
chain: KKAVPYNRMKLMIVGNTGSGKTTLLQQLMKTKKSDLGMQSATVGIDVKDWPIQIRDKAARDLVLNVWDFAGREEFYSTHPHFMTQRALYLAVYDLSKGQAEVDAMKPWLFNIKARASSSPVILVGTHLDVSDEKQRKACMSKITKELLNKRGFPAIRDYHFVNATEESDALAKLRKTIINESLNFKIRDQLVVGQLIPDCYVELEKIILSERKNVPIEFPVIDRKRLLQLVRENQLQLDENELPHAVHFLNESGVLLHFQDPALQLSDLYFVEPKWLCKIMAQILTVKVEGCPKHPKGIISRRDVEKFLSKKRKFPKNYMSQYFKLLEKFQIALPIGEEYLLVPSSLSDHRPVIELPHCENSEIIIRLYEMPYFPMGFWSRLINRLLEISPYMLSGRERALRPNRMYWRQGIYLNWSPEAYCLVGSEVLDNHPESFLKITVPSCRKGCILLGQVVDHIDSLMEEWFPGLLEIDICGEGETLLKKWALYSFNDGEEHQKILLDDLMKKAEEGDLLVNPDQPRLTIPISQIAPDLILADLPRNIMLNNDELEFEQAPEFLLGDGSFGSVYRAAYEGEEVAVKIFNKHTSLRLLRQELVVLCHLHHPSLISLLAAGIRPRMLVMELASKGSLDRLLQQDKASLTRTLQHRIALHVADGLRYLHSAMIIYRDLKPHNVLLFTLYPNAAIIAKIADYGIAQYCCRMGIKTSEGTPGFRAPEVARGNVIYNQQADVYSFGLLLYDILTTGGRIVEGLKFPNEFDELEIQGKLPDPVKEYGCAPWPMVEKLIKQCLKENPQERPTSAQVFDILNSAELVCLTRRILLPKNVIVECMVATHHNSRNASIWLGCGHTDRGQLSFLDLNTEGYTSEEVADSRILCLALVHLPVEKESWIVSGTQSGTLLVINTEDGKKRHTLEKMTDSVTCLYCNSFSKQSKQKNFLLVGTADGKLAIFEDKTVKLKGAAPLKILNIGNVSTPLMCLSESTNSTERNVMWGGCGTKIFSFSNDFTIQKLIETRTSQLFSYAAFSDSNIITVVVDTALYIAKQNSPVVEVWDKKTEKLCGLIDCVHFLREVMVKENKESKHKMSYSGRVKTLCLQKNTALWIGTGGGHILLLDLSTRRLIRVIYNFCNSVRVMMTAQLGSLKNVMLVLGYNRKNTEGTQKQKEIQSCLTVWDINLPHEVQNLEKHIEVRKELAEKMRRTSVE
B2: LRRK2^RCKW (catalytic half of LRRK2: ROC, COR, kinase and WD40 domains), wild type, Q5S007 K1358A; K1359A (protein)
chain: KKAVPYNRMKLMIVGNTGSGKTTLLQQLMKTAASDLGMQSATVGIDVKDWPIQIRDKRKRDLVLNVWDFAGREEFYSTHPHFMTQRALYLAVYDLSKGQAEVDAMKPWLFNIKARASSSPVILVGTHLDVSDEKQRKACMSKITKELLNKRGFPAIRDYHFVNATEESDALAKLRKTIINESLNFKIRDQLVVGQLIPDCYVELEKIILSERKNVPIEFPVIDRKRLLQLVRENQLQLDENELPHAVHFLNESGVLLHFQDPALQLSDLYFVEPKWLCKIMAQILTVKVEGCPKHPKGIISRRDVEKFLSKKRKFPKNYMSQYFKLLEKFQIALPIGEEYLLVPSSLSDHRPVIELPHCENSEIIIRLYEMPYFPMGFWSRLINRLLEISPYMLSGRERALRPNRMYWRQGIYLNWSPEAYCLVGSEVLDNHPESFLKITVPSCRKGCILLGQVVDHIDSLMEEWFPGLLEIDICGEGETLLKKWALYSFNDGEEHQKILLDDLMKKAEEGDLLVNPDQPRLTIPISQIAPDLILADLPRNIMLNNDELEFEQAPEFLLGDGSFGSVYRAAYEGEEVAVKIFNKHTSLRLLRQELVVLCHLHHPSLISLLAAGIRPRMLVMELASKGSLDRLLQQDKASLTRTLQHRIALHVADGLRYLHSAMIIYRDLKPHNVLLFTLYPNAAIIAKIADYGIAQYCCRMGIKTSEGTPGFRAPEVARGNVIYNQQADVYSFGLLLYDILTTGGRIVEGLKFPNEFDELEIQGKLPDPVKEYGCAPWPMVEKLIKQCLKENPQERPTSAQVFDILNSAELVCLTRRILLPKNVIVECMVATHHNSRNASIWLGCGHTDRGQLSFLDLNTEGYTSEEVADSRILCLALVHLPVEKESWIVSGTQSGTLLVINTEDGKKRHTLEKMTDSVTCLYCNSFSKQSKQKNFLLVGTADGKLAIFEDKTVKLKGAAPLKILNIGNVSTPLMCLSESTNSTERNVMWGGCGTKIFSFSNDFTIQKLIETRTSQLFSYAAFSDSNIITVVVDTALYIAKQNSPVVEVWDKKTEKLCGLIDCVHFLREVMVKENKESKHKMSYSGRVKTLCLQKNTALWIGTGGGHILLLDLSTRRLIRVIYNFCNSVRVMMTAQLGSLKNVMLVLGYNRKNTEGTQKQKEIQSCLTVWDINLPHEVQNLEKHIEVRKELAEKMRRTSVE
B3: LRRK2^RCKW (catalytic half of LRRK2: ROC, COR, kinase and WD40 domains), wild type, Q5S007 R1731D; S2345D (protein)
chain: KKAVPYNRMKLMIVGNTGSGKTTLLQQLMKTKKSDLGMQSATVGIDVKDWPIQIRDKRKRDLVLNVWDFAGREEFYSTHPHFMTQRALYLAVYDLSKGQAEVDAMKPWLFNIKARASSSPVILVGTHLDVSDEKQRKACMSKITKELLNKRGFPAIRDYHFVNATEESDALAKLRKTIINESLNFKIRDQLVVGQLIPDCYVELEKIILSERKNVPIEFPVIDRKRLLQLVRENQLQLDENELPHAVHFLNESGVLLHFQDPALQLSDLYFVEPKWLCKIMAQILTVKVEGCPKHPKGIISRRDVEKFLSKKRKFPKNYMSQYFKLLEKFQIALPIGEEYLLVPSSLSDHRPVIELPHCENSEIIIRLYEMPYFPMGFWSRLINRLLEISPYMLSGRERALRPNDMYWRQGIYLNWSPEAYCLVGSEVLDNHPESFLKITVPSCRKGCILLGQVVDHIDSLMEEWFPGLLEIDICGEGETLLKKWALYSFNDGEEHQKILLDDLMKKAEEGDLLVNPDQPRLTIPISQIAPDLILADLPRNIMLNNDELEFEQAPEFLLGDGSFGSVYRAAYEGEEVAVKIFNKHTSLRLLRQELVVLCHLHHPSLISLLAAGIRPRMLVMELASKGSLDRLLQQDKASLTRTLQHRIALHVADGLRYLHSAMIIYRDLKPHNVLLFTLYPNAAIIAKIADYGIAQYCCRMGIKTSEGTPGFRAPEVARGNVIYNQQADVYSFGLLLYDILTTGGRIVEGLKFPNEFDELEIQGKLPDPVKEYGCAPWPMVEKLIKQCLKENPQERPTSAQVFDILNSAELVCLTRRILLPKNVIVECMVATHHNSRNASIWLGCGHTDRGQLSFLDLNTEGYTSEEVADSRILCLALVHLPVEKESWIVSGTQSGTLLVINTEDGKKRHTLEKMTDSVTCLYCNSFSKQSKQKNFLLVGTADGKLAIFEDKTVKLKGAAPLKILNIGNVSTPLMCLSESTNSTERNVMWGGCGTKIFSFSNDFTIQKLIETRTSQLFDYAAFSDSNIITVVVDTALYIAKQNSPVVEVWDKKTEKLCGLIDCVHFLREVMVKENKESKHKMSYSGRVKTLCLQKNTALWIGTGGGHILLLDLSTRRLIRVIYNFCNSVRVMMTAQLGSLKNVMLVLGYNRKNTEGTQKQKEIQSCLTVWDINLPHEVQNLEKHIEVRKELAEKMRRTSVE
B4: LRRK2^RCKW (catalytic half of LRRK2: ROC, COR, kinase and WD40 domains), wild type, Q5S007 S2345D (protein)
chain: KKAVPYNRMKLMIVGNTGSGKTTLLQQLMKTKKSDLGMQSATVGIDVKDWPIQIRDKRKRDLVLNVWDFAGREEFYSTHPHFMTQRALYLAVYDLSKGQAEVDAMKPWLFNIKARASSSPVILVGTHLDVSDEKQRKACMSKITKELLNKRGFPAIRDYHFVNATEESDALAKLRKTIINESLNFKIRDQLVVGQLIPDCYVELEKIILSERKNVPIEFPVIDRKRLLQLVRENQLQLDENELPHAVHFLNESGVLLHFQDPALQLSDLYFVEPKWLCKIMAQILTVKVEGCPKHPKGIISRRDVEKFLSKKRKFPKNYMSQYFKLLEKFQIALPIGEEYLLVPSSLSDHRPVIELPHCENSEIIIRLYEMPYFPMGFWSRLINRLLEISPYMLSGRERALRPNRMYWRQGIYLNWSPEAYCLVGSEVLDNHPESFLKITVPSCRKGCILLGQVVDHIDSLMEEWFPGLLEIDICGEGETLLKKWALYSFNDGEEHQKILLDDLMKKAEEGDLLVNPDQPRLTIPISQIAPDLILADLPRNIMLNNDELEFEQAPEFLLGDGSFGSVYRAAYEGEEVAVKIFNKHTSLRLLRQELVVLCHLHHPSLISLLAAGIRPRMLVMELASKGSLDRLLQQDKASLTRTLQHRIALHVADGLRYLHSAMIIYRDLKPHNVLLFTLYPNAAIIAKIADYGIAQYCCRMGIKTSEGTPGFRAPEVARGNVIYNQQADVYSFGLLLYDILTTGGRIVEGLKFPNEFDELEIQGKLPDPVKEYGCAPWPMVEKLIKQCLKENPQERPTSAQVFDILNSAELVCLTRRILLPKNVIVECMVATHHNSRNASIWLGCGHTDRGQLSFLDLNTEGYTSEEVADSRILCLALVHLPVEKESWIVSGTQSGTLLVINTEDGKKRHTLEKMTDSVTCLYCNSFSKQSKQKNFLLVGTADGKLAIFEDKTVKLKGAAPLKILNIGNVSTPLMCLSESTNSTERNVMWGGCGTKIFSFSNDFTIQKLIETRTSQLFDYAAFSDSNIITVVVDTALYIAKQNSPVVEVWDKKTEKLCGLIDCVHFLREVMVKENKESKHKMSYSGRVKTLCLQKNTALWIGTGGGHILLLDLSTRRLIRVIYNFCNSVRVMMTAQLGSLKNVMLVLGYNRKNTEGTQKQKEIQSCLTVWDINLPHEVQNLEKHIEVRKELAEKMRRTSVE

Molecular target: Taxol-stabilized microtubules from porcine brain tubulin, P02550
Sequence (P02550 other isoform, or with tags, fused parts or gaps, chain 1 of 2): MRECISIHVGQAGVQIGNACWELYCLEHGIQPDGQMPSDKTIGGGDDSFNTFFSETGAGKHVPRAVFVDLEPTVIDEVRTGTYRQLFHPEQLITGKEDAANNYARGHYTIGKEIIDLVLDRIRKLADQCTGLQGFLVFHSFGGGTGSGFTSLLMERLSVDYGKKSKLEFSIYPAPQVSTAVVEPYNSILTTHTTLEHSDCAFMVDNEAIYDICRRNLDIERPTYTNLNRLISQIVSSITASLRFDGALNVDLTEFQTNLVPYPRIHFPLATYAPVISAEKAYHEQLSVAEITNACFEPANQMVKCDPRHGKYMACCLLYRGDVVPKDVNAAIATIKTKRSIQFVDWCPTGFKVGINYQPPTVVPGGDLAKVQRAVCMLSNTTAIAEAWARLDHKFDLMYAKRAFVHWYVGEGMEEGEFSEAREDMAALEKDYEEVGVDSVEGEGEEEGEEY
Sequence (chain, as listed by the source, chain 2 of 2): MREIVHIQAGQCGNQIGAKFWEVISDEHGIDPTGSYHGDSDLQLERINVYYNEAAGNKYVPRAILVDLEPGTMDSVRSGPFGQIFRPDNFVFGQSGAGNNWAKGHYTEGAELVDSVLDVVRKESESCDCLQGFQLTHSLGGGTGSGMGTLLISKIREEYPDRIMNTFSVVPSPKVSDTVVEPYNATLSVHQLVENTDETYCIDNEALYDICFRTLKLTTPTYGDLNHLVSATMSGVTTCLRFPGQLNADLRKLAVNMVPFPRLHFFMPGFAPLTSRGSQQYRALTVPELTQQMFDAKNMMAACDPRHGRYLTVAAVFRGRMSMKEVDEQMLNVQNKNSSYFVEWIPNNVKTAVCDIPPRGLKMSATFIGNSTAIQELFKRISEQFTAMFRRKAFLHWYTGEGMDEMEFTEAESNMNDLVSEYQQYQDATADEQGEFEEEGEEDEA
Test: microtubule pelleting assay
Settings: chain shown with the change;, read off a plot

| Binder | response (fraction microtubule bound) (parent: est. 0.78) | response (fraction microtubule bound) (parent: est. 0.70) |
| --- | --- | --- |
| B1 | 0.35 | – |
| B2 | 0.48 | – |
| B3 | – | 0.1 |
| B4 | – | 0.53 |
